Patent publication US20230382819A1, “PROCESSES FOR SYNTHESIS OF ALPHA-EMITTING RADIOPHARMACEUTICALS” (priority 2020, published 2023)

Legend:
[1] = Maximum tolerated activity/toxicity in non-tumor bearing mice; assay type: in vivo
Method: (§1) Radiochemical synthesis and characterization. Complexation was achieved by reacting DOTATATE (5-10 μg in 5-10 μL water from 1.0 mg/mL solution) with ^225Ac(NO3)3 (3.4 MBq) that was diluted in 100 μL of water containing 10 μL of 20% L-ascorbic acid. The pH was adjusted to 5.5-6 using 1 M Tris buffer (10-12 μL), and then incubated at 60° C. for 1 h (FIG. 1). […] Animal studies. An equal number of male and female subjects were assigned to each experimental cohort. All the animals were purchased from Charles River (Wilmington, MA). Injected Activity Measurement. […] Activities in syringes were measured using the Atomlab 500 Dose Calibrator (Biodex). Per the manufacturer's recommendations, measurements were made for 2 mins using dial number 38.2 and the assumption that ^225Ac and daughters were in secular equilibrium. Activity was injected into each mouse via tail-vein catheter (50 μL dead volume). […] The α activity in μCi of each radionuclide was determined by fitting each peak with a multi-Gaussian fit and integrating to determine the net number of counts while incorporating the acquisition time. The net administered activities were determined by subtraction of the residual activity in the catheter and syringe from the dose calibrator measured pre-injection activity. Spectra for activity calculations were acquired ≥24 h post-radiosynthesis ensuring that ^225Ac and daughters were in secular equilibrium (see Robertson, A. K. H.; et al. Phys Med Biol 2017, 62 (11), 4406-4420). Maximum tolerated activity/toxicity. […] Then, mice were weighed twice per week and monitored for 5 months for signs of distressed behavior, followed by euthanasia and tissue collection. Blood urea nitrogen (BUN), creatinine, alkaline phosphatase (ALKP), alanine aminotransferase (ALT) and aspartate aminotransferase (AST) content in serum were analyzed using commercial IDEXX CLIP (IDEXX, Main, USA) and read by an automated biochemical analyzer (IDEXX Catalyst DX, Main, USA) following the manufacturer's protocol. Bone, bone marrow, brain, cecum, duodenum, kidney, liver, lymph nodes, muscle, pancreas, salivary gland, small intestine, and spleen were harvested and fixed in 10% formalin. Bone was decalcified in 14% ethylene diaminetetraacetic acid (EDTA) solution after fixation in formalin. All tissues were embedded in paraffin, sectioned (4-6 μm thickness), stained with hematoxylin and eosin (H&E), and examined by the veterinary pathologist (R.E.), in a blind manner. Biodistribution (BD). BD studies for ^225Ac-DOTATATE were performed using groups of normal non-tumor bearing BALB/c mice. […] Groups of animals were euthanized at 24, 48 and 96 h p.i., n=4 mice per time point, and tissues were removed and weighed. […] Radiation dosimetry. Dosimetry calculations were performed as previously described. […] The β decay branching ratio for ^217At to ^217Rn is only 0.01% therefore it was assumed that all decays of ^217At were by […] to ^213Bi. The branching ratios for decay of ^213Bi by 98% to ^213Po and by 2% to ^209T1 were accounted for in the calculation. Due to the relatively low LET and the small dimensions of the target tissues, the β emissions from ^217At, ^213Bi, ^209T1 and ^209Pb were assumed negligible and not included in the calculations (see Bolch, W. E.; J Nucl Med 2009, 50 (3), 477-84).
Anti-tumor efficacy. Efficacy studies were performed using NCI-H69 human SCLC and NCI-H727 lung carcinoid xenograft tumors in SCID mice. […] Animals were euthanized when the experimental endpoint of 2000 mm^3 tumor volume was reached. Any euthanasia performed prior to reaching 2000 mm^3 tumor volume were due to clinical endpoints, such as 20% weight loss, tumor ulceration, hunched back, scruffy fur (no longer grooming), lethargic or slow moving. Histology and immunohistochemistry (IHC). […]

[2] = Radiation dosimetry and clearance kinetics from BD data; assay type: in vivo; settings: for Decay half-life, Teff: ^225Ac
Method: as §1, with “(BD).” for “(BD). BD studies for ^225Ac-DOTATATE were performed using groups of normal non-tumor bearing BALB/c mice.”
Dosimetry calculations were performed using the generalized internal dosimetry schema of the MIRD Committee for α-particle emitters. According to MIRD #21, the absorbed radiation dose due to particle type x, Dx(rT, TD) is the mean energy imparted to target tissue rT per unit tissue mass, defined by Equation 1: […]
where A(rS, TD) is the total number of nuclear transitions in the […] (accumulated activity), Δi^x is the mean energy emitted per nuclear transition, φ(rT←rS; Ei^x) is the fraction of energy emitted per nuclear transition in the source region that is absorbed in the target region by the i^th emission that is emitted with initial energy E, k is a conversion factor, and M(rT) is the mass of the target tissue.

[3] = mouse, in vivo
Method: Radiochemical synthesis and characterization. Complexation was achieved by reacting DOTATATE (5-10 μg in 5-10 μL water from 1.0 mg/mL solution) with ^225Ac(NO3)3 (3.4 MBq) that was diluted in 100 μL of water containing 10 μL of 20% L-ascorbic acid. The pH was adjusted to 5.5-6 using 1 M Tris buffer (10-12 μL), and then incubated at 60° C. for 1 h (FIG. 1). […] Animal studies. An equal number of male and female subjects were assigned to each experimental cohort. All the animals were purchased from Charles River (Wilmington, MA). Injected Activity Measurement. […] Activities in syringes were measured using the Atomlab 500 Dose Calibrator (Biodex). Per the manufacturer's recommendations, measurements were made for 2 mins using dial number 38.2 and the assumption that ^225Ac and daughters were in secular equilibrium. […] The α activity in μCi of each radionuclide was determined by fitting each peak with a multi-Gaussian fit and integrating to determine the net number of counts while incorporating the acquisition time. The net administered activities were determined by subtraction of the residual activity in the catheter and syringe from the dose calibrator measured pre-injection activity. […] Then, mice were weighed twice per week and monitored for 5 months for signs of distressed behavior, followed by euthanasia and tissue collection. […]

With `C[C@@H](O)[C@H](NC(=O)[C@@H]1CSSC[C@H](NC(=O)[C@@H](Cc2ccccc2)NC(=O)CN2CCN(CC(=O)O)CCN(CC(=O)O)CCN(CC(=O)O)CC2)C(=O)N[C@@H](Cc2ccc(O)cc2)C(=O)N[C@H](Cc2c[nH]c3ccccc23)C(=O)N[C@@H](CCCCN)C(=O)N[C@@H]([C@@H](C)O)C(=O)N1)C(=O)O` [^225Ac-DOTATATE, metal not drawn] the survival ([1]; all dose levels) was “all animals survived to 5-months p.i”, the “treatment related pathologic changes in other studied organs (not kidney)” value ([1]; bone, bone marrow, brain, cecum, duodenum, liver, lymph nodes, muscle, pancreas, salivary gland, small intestine, spleen) was “None and no treatment related damage” and the “ALKP among the cohorts (ANOVA and Dunnett's test)” value ([1]; mouse, in vivo) was “no significant differences”. The “ALT among the cohorts (ANOVA and Dunnett's test)” value ([1]; mouse, in vivo) was “no significant differences”, the “AST among the cohorts (ANOVA and Dunnett's test)” value ([1]; mouse, in vivo) was “no significant differences” and the Liver enzymes ([1]; mouse, in vivo) was “normal”. The “acute kidney damage by pathology” value ([1]; mouse, in vivo) was “no acute kidney damage”, the “Decay half-life, Teff” value ([2]; Brain) was 67.296 h and the “Decay half-life, Teff” value ([2]; Heart) was 1732.87 h. For the same compound, the “Decay half-life, Teff” value ([2]; Lung) was 53.318 h, the “Decay half-life, Teff” value ([2]; Muscle) was 141.46 h and the “Decay half-life, Teff” value ([2]; Pancreas) was 115.52 h. The “Decay half-life, Teff” value ([2]; Salivary) was 90.019 h, the “Decay half-life, Teff” value ([2]; Skin) was 75.343 h and the “Decay half-life, Teff” value ([2]; Spleen) was 111.8 h. For the same compound, the “calculated total absorbed dose” value ([2]; mouse, in vivo) was “minimal”, the “clearance of activity from the tissues” value [3] was “largely cleared” and the clearance route [3] was “primarily cleared by the renal route, with some hepatic clearance”.
